B1: activin A: growth factor added to the culture medium at 5 ng/ml (protein, UniProt P08476 311-426, looked up)
Inhibin beta A chain: GLECDGKVNICCKKQFFVSFKDIGWNDWIIAPSGYHANYCEGECPSHIAGTSGSSLSFHSTVINHYRMRGHSPFANLKSCCVPTKLRPMSMLYYDDGQNIIKKDIQNMIVEECGCS
B2: BMP4: bone morphogenetic protein, agonist of a receptor of the TGF-β superfamily (protein, UniProt P12644 293-408, looked up)
Bone morphogenetic protein 4: SPKHHSQRARKKNKNCRRHSLYVDFSDVGWNDWIVAPPGYQAFYCHGDCPFPLADHLNSTNHAIVQTLVNSVNSSIPKACCVPTELSAISMLYLDEYDKVVLKNYQEMVVEGCGCR

Key:
[1] = system: ES cells; assay: Serum-free medium and transient growth factor stimulation: numbers of undifferentiated ES cells; format: cell-based; conditions: factor continuously present in LIF and BMP4 medium
Method: ES cells were grown initally in a medium comprising DMEM F12 plus neurobasal medium (ratio 1:1) supplemented with N2-B27. ES cells were plated at very low density, about 1000-10,000 cells on a 3.5 cm diameter plate and grown on in the same medium supplemented with LIF and BMP4. […]
We observed enhanced numbers of undifferentiated ES cells, indicating increased proliferation or increased ES cell survival, or both.
After more (5-6) passages the rank order of efficacy changed to:—

[2] = system: ES cells; assay: Extended passaging of ES cells in serum free, feeder cell free defined culture media; format: cell-based, murine; conditions: after multiple passages in serum free medium
Text: When using the LIF and BMP4-containing medium of a specific embodiment of the present invention extended passaging of ES cells is possible. In one example, murine ES cells have been maintained for more than 20 passages over a three month period. Cells were passaged every 2-4 days depending on the plating cell density, though occasionally cells were passaged 7-10 days after plating at low density.
In an alternative embodiment, it is an option not to remove the FGF receptor inhibitor. […] ES-cells can be grown in culture for at least 20 passages in. N2B27 medium in the presence of LIF and an FGF inhibitor, in the absence of BMP. If the FGF receptor inhibitor is not removed from the medium, it is preferred that it is a specific inhibitor and has little or no activity on other receptors.
N2B27 (1:1 mixture of DMEM/F12 medium supplemented with modified N2 (25 μg/ml insulin, 100 μg/ml apo-transferrin, 6 ng/ml progesterone, 16 μg/ml putrescine, 30 nM sodium selenite and 50 μg/ml bovine serum albumin) and Neurobasal medium supplemented with B27)
ES cells were cultured in 0.1% gelatin coated dishes in N2B27 medium supplemented with LIF (100 U/ml) and BMP4 (10 ng/ml). For passaging, a standard protein-free cell dissociation buffer was used to dissociate cells.
The plating density of the cells was approximately 1-5×10^4/cm^2. […]

[3] = system: ES cells; assay: Self-renewal of pluripotent cells with agonists of a receptor of the TGF-β superfamily or FGF receptor inhibitor; format: cell-based

Row | Molecule | effect when continuously present [1] | differentiation of ES cells in the presence of BMP4 but absence of LIF [2] | result as agonist of a receptor of the TGF-β superfamily for self-renewal [3]
1 | TGFβ: growth factor added to the culture medium at 1-2 ng/ml | progressive differentiation of the ES cells |  | 
2 | B1 | progressive differentiation of the ES cells |  | 
3 | B2 |  | differentiated into large flat cells of characteristic morphology | Good results

From patent publication US20050221478A1, “Control of es cell self renewal and lineage specification, and medium therefor” (University of Edinburgh, priority 2002, published 2005)
